# Results as given in article PMC7220375.
# Molecular target: full-length t-SNARE complex (mouse His6-SNAP25B, residues 1-206 and rat Syntaxin1A, residues 1-288) (mouse | rat) (UniProt P60879)
# Sequence (P60879 whole entry, chain 1 of 2, the tested form may be a part): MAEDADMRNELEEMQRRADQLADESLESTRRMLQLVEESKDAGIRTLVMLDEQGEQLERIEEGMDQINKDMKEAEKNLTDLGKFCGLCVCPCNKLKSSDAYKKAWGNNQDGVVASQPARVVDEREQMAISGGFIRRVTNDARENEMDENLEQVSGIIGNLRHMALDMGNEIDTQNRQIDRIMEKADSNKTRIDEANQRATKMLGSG
# Sequence (chain, as listed by the source, chain 2 of 2): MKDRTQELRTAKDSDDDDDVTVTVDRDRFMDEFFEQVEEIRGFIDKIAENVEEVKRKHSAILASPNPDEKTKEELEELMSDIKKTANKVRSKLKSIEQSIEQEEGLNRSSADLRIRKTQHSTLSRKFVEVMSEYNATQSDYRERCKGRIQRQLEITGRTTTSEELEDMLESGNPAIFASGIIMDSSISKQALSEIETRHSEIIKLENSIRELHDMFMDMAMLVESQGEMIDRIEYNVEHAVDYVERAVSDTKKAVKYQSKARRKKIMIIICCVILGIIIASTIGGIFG
substance,measurement,value
"Syt1^LLQQ (rat Synaptotagmin1-His6, residues 57-421, L387Q/L394Q) (from UniProt P21707 57-421) (domain or fragment)","share of clamped vesicles that stay unfused after Ca2+ (1 mM), normal VAMP2, with 2 µM Cpx (tripartite interface of Syt1 with Cpx and SNAREs)",25%
